Measurements as given in patent publication US20050085442A1.

Key:
[1] = biological target: human airway smooth muscle cell mannose receptor (huASMC-MR) (human) (UniProt Q9UBG0); test: flow cytometry (cell sorting) of bovine airway smooth muscle cells transfected with full-length huASMC-MR cDNA plasmid; vector control 57/1718 cells
[2] = biological target: bovine airway smooth muscle cell mannose receptor (bovine); test: cell-based or functional assay

Row | percent of cells with increased fluorescence intensity [1] [%] | b hexosaminidase-induced mitogenesis in bovine ASMC, inhibition by antisense huASMC-MR morpholino oligonucleotides (5 µM) [2] [%] | Substance
1 | 61 | – | FITC-ManBSA (FITC-labelled mannosylated bovine serum albumin) (from UniProt P02769 25-607)
2 | – | 37 | b hexosaminidase A (human placental β-hexosaminidase, Sigma) (from UniProt P06865 89-529; P07686 122-556) (enzyme)
